# Results as given in the nanobody polyreactivity screen of Harvey et al. (2022).
# Test: yeast display, Sf9 membrane polyspecificity reagent, FACS + sequencing; frameworks hold sequencing errors
# Summary of the method: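 Sorting gates, low and high (top ~1%), were placed on anti-HA fluorescence to track expression and on streptavidin fluorescence to track reagent binding. A clone's polyreactivity label is taken from the gate it came out of. The reagent was 10% biotinylated, detergent-solubilized Sf9 membrane, applied for 1 hour at 4 °C to galactose-induced yeast display cells.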
row,Sequence,polyreactivity (PSR sort gate)
1,QVQLVESGGGLVQAGGSLRLSCAASGRTFSANAMGWYRQAPGKERELVATISSGGRTNYADSVKGRFTISRDNAMNTVYLQMNSLKPEDTAVYYCAADFDYAYWDTTYDYWGQGTQVTVSS,low polyreactivity
2,QVQLVESGGGLVQAGGSLRLSCAASGRTFSAYAMGWYRQAPGKERELVARITSVDSTNYADSVKGRFTISRDNAKNTVYLQMNSLKPEDTAVYYCNATFGYPFVDYDDYWGQGTQVTGSS,low polyreactivity
3,QVQLVESGGGLVQAGGSLRLSCAASGRTFSAYAMGWYRQAPGKERELVARITSVDSTNYADSVKGRFTISRDNAKNTVYLQMNSLKPEDTAVYYCNATFGYPFVEYDDYWGQGTQVTVSS,low polyreactivity
4,QVQLVESGGGLVQAGGSLRLSCAASGRTFSDYVMGWYRQAPGKERELVAAINIGGGSTYYADSVKGRFTISRDNAKNTVYLQMNSLKPEDTAVYYCAAESAGSYLDYYWAYGYWGQGTQVTVSS,low polyreactivity
5,QVQLVESGGGLVQAGGSLRLSCAASGRTFSENAMGWYRQAPGKERELVAAISGSGGRTYYADSVKGRFTISRDNAKNTVYLQMNRLKPEDTAVYYCAKVTRYGSTYDYWGQGTQVTVSS,high polyreactivity
6,QVQLVESGGGLVQAGGSLRLSCAASGRTFSFYAMVWYRQAPGKERELVAGIDWDDGSTSYADSVKGRFTISRDNAKNTVYLQMNSLKQEDTAVCYCAADIGYDVYNDYDYWGQGTQVTVSS,low polyreactivity
7,QVQLVESGGGLVQAGGSLRLSCAASGRTFSFYDMGWYRQAPGKERELVAAINSGSSTYYADSVKGRFTISRDNANNTVYLQMNSLKPEDTEVYYCAAEPYFWWQNEYWGQGTQVTVSS,high polyreactivity
8,QVQLVESGGGLVQAGGSLRLSCAASGRTFSGNTMGWYRQAPGKERELVAAISSGGSRTYYADSVKGRFTISRDNAKNTVYLLMNSLKPEDTAVYYCATVSTYYHYRRYDYWGQGTQVTVSS,high polyreactivity
9,QVQLVESGGGLVQAGGSLRLSCAASGRTFSGYAMGWYRQAPGKEREFVAAITSSGGSTYYADSVKGRFTISRDNAKNTVYLQMNSLKPEDTAVYYCAARIRHFSVGYYYWGQGTQVTVSS,high polyreactivity
10,QVQLVESGGGLVQAGGSLRLSCAASGRTFSGYAMGWYRQAPGKERELVAAINYSDGSTYYADSVKGRFTISRDNAKNTVYLQMNSLKPEDTAVYYCNKVYRYVRYAYDYWGQGTQVTVSS,high polyreactivity
11,QVQLVESGGGLVQAGGSLRLSCAASGRTFSGYAMGWYRQAPGKERELVAGINWSGDSTYYADSVKGRFTISRDNAKNTVYLQMNSLKPEDTAVYYCAASRSGTYDWGQGTQVTVSS,high polyreactivity
12,QVQLVESGGGLVQAGGSLRLSCAASGRTFSHYAMGWSRQAPGKERELVAASNTRTGTTYYADSVKGRFTISRDNAKNTVNLQMNSLKPEDTAVYYCNAVPYYSYQGWILVGDYDYWGQGTQVTVSS,low polyreactivity
13,QVQLVESGGGLVQAGGSLRLSCAASGRTFSINAMGWYRQAPGKERELVASISSRGTRTNYADSVKGRFTISRDNAKNTVYLQMNSLKPEDTAVYYCAADRYYPYYSAWREYEYWGQGTQVTVSS,high polyreactivity
14,QVQLVESGGGLVQAGGSLRLSCAASGRTFSIYAMGWYRQAPGKERELVASITGRGTRTYYADSVKGRFTISRDNAKNTVYLQMNSLKPEDTAVYYCNARGKVQSSYDDDYWGQGTQVTVSS,high polyreactivity
15,QVQLVESGGGLVQAGGSLRLSCAASGRTFSKNAMGWYRQAPGKERELVADISRRGGRTYYADSVNGRFTISRDNAKNTVYLQMNSLKPEDTAVYYCAARTYRQPYYILDYYWGQGTQVTVSS,high polyreactivity
16,QVQLVESGGGLVQAGGSLRLSCAASGRTFSKYAMGWYRQAPGKERELVAAITRSGSSTYYADSVKGRFTISRDNAKNTVYLQMNSLKPEDTAVYYCAADRYVRSSGSASDYGYWGQGTQVTVSS,low polyreactivity

row,Sequence,polyreactivity (PSR sort gate)
1,QVQLVESGGGLVQAGGSLRLSCAASGRTFSLYAMGWYRQAPGKERELVARIRSSTRTTYADSVKGRFTISRDNAKNTVYLQMNSLKPEDTAVYYCAADSGYRYYTKSVGYDYWGQGTQVTVSS,high polyreactivity
2,QVQLVESGGGLVQAGGSLRLSCAASGRTFSPYAMGWYRQAPVKERELVAAITSGGRTNYADSVKGRFTISRDNAKNTVYLQMNSLKPEDTAVYYCAARSGRYRWTRFDYWGQGTQVTVSS,low polyreactivity
3,QVQLVESGGGLVQAGGSLRLSCAASGRTFSPYMGWYRQAPGKERELVAAISKSGGRTYYADSVKGRFTISRDNAKNTVYLQMNSLKPEDTAVYYCANTGNNYYYALYGYWGQGTQVTVSS,low polyreactivity
4,QVQLVESGGGLVQAGGSLRLSCAASGRTFSQYAMGWYRPAPGKERELVAAITRSGSRTYYADSVKGRFTISRDNAKNTVYLQMNSLKPEDTAVYYCAADGHAGYPIDEYYYWGQGTQVTVSS,high polyreactivity
5,QVQLVESGGGLVQAGGSLRLSCAASGRTFSQYAMGWYRQAPGKERELVAAITKNGGRTYYADSVKGRFTISRDNAKNTVYLQMNSLKPEDTAVYYCNARGGRYAGKLDYWGQGTQVTVSS,high polyreactivity
6,QVQLVESGGGLVQAGGSLRLSCAASGRTFSRNAMGWYRQAPGKERELVAAITSSGGSTYYADSVKGRFTISRDNAKNTVYLQMNSLKPEDTAVYYCNADATYRRGGGDYWGQGTQVTVSS,high polyreactivity
7,QVQLVESGGGLVQAGGSLRLSCAASGRTFSRNAMGWYRQAPGKERELVATISSSGVRTYYADSVKGRFTISRDNAKNTVYLQMNSLKPEDTAVYYCAAAWRYYSAASGYDYWGQGTQVTVSS,low polyreactivity
8,QVQLVESGGGLVQAGGSLRLSCAASGRTFSRYAIGWYRQAPGKERELVASITSRGGSTYYADSVKGRFTISRDNAKNTVYLQMNSLKPEDTAVYYCNVKPTYSPRYWEDYWGQGTQVTVSS,high polyreactivity
9,QVQLVESGGGLVQAGGSLRLSCAASGRTFSRYAMGWYRQAPGKEREFVAAITWSSGGTYYADSVKGRFTISRDNAKNTVYLQMNSLKPEDTAVYYCNYLRSRYYQDYNYWGQGTQVTVSS,high polyreactivity
10,QVQLVESGGGLVQAGGSLRLSCAASGRTFSRYAMGWYRQAPGKERELVAAISRSGGITYYADSVKGRFTISRDNAKNTVYLQMNSLKPEDTAVYYCAAYVRGWGGDDYWGQGTQVTVSS,high polyreactivity
11,QVQLVESGGGLVQAGGSLRLSCAASGRTFSSYAMGWYRQAPGKERELVAAIRVSGGITYYADSVKGRFTISRDNAKNTVYLQMNSLKPEDTAVYYCNAGVDFIGGSYLKYDYWGQGTKVTVSS,low polyreactivity
12,QVQLVESGGGLVQAGGSLRLSCAASGRTFSTNAMGWYSQAPGKERELVAAISARGGSTYYADSVKGRFTISRDNAKNTVYLLLTSLKPEDTAVDYCARRPGRYSYAFDYWGQGTQVTVSS,high polyreactivity
13,QVQLVESGGGLVQAGGSLRLSCAASGRTFSTYAMGWCRQAPGKERELVAAISRRGGSTYYADSVKGRFTISRDNAKYTVYLQMNSLKPEDTAVYYGAADSYDSDVNEYDYWGQGTQVTVSS,high polyreactivity
14,QVQLVESGGGLVQAGGSLRLSCAASGRTFSTYAMGWYRQAPGKERELVARITSSGGSTYYAHSVKGRFTISRDIAKNSVYLQMNCLKPEDTAVYYCAAYAHYAQRYYYWGQGTQVTVSS,high polyreactivity
15,QVQLVESGGGLVQAGGSLRLSCAASGRTFSTYTMGWYRPAPGNERELVAAINWSGTSTYYADSVKGRFTISRDTAKNTVYLQMNSLKPEDTAFYYCNAGKWAYRWGYELNYWGQGTQVTVSS,high polyreactivity
